This passage reports binding result and IC50 results from patent publication US20240076386A1 (Pfizer, published 2024).

The labels stand for the following.
T1: human P-selectin expressed on CHO cells (human, UniProt P16109 42-830)
T1 construct: whole, on cells; also called CHO-human P-selectin cells; CHO-P-selectin cells
T1 sequence (looked up): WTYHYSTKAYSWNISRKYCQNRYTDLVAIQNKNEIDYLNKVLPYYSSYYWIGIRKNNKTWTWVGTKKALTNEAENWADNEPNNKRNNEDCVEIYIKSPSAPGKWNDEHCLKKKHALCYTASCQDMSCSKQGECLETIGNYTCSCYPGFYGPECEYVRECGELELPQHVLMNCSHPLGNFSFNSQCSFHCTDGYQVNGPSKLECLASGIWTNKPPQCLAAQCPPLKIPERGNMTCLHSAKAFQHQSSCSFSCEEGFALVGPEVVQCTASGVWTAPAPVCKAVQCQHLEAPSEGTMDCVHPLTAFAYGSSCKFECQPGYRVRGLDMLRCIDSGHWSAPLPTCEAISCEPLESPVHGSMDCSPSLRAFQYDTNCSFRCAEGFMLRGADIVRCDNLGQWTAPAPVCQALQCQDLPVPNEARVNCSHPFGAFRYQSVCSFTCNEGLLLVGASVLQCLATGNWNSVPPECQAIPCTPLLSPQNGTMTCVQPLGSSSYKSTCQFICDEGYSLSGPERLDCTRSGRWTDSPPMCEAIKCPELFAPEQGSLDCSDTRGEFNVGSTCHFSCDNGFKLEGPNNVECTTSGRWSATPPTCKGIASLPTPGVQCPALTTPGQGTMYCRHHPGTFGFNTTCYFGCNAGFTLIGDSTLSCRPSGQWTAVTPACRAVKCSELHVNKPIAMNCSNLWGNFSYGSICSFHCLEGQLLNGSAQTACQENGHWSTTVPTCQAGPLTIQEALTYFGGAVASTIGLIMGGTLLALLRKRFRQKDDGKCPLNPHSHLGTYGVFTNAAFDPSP

T2: recombinant histidine-tagged human E-selectin (Sino Biologicals; 13025-H08H) (human, UniProt P16581 22-556)
T2 construct: also called recombinant human E-selectin; soluble recombinant human E-selectin
T2 sequence (looked up): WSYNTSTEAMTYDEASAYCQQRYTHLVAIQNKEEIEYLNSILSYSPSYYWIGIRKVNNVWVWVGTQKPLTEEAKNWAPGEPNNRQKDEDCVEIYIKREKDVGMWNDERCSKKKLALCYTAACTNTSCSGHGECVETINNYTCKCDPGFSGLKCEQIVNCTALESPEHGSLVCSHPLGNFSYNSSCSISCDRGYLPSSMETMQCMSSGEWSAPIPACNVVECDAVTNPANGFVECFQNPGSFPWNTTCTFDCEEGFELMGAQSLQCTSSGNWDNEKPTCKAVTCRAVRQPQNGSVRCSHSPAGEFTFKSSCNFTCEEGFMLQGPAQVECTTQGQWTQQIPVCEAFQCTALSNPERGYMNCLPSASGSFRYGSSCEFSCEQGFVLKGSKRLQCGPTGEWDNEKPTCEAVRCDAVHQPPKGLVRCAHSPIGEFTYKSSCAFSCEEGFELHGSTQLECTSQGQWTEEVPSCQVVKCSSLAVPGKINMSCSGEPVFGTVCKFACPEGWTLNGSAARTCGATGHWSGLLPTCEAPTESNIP

B1: anti-E-selectin antibody 0158 chimera (antibody, human IgG1, kappa, V domains shown)
VH: QVQLKESGPGLVQPSETLSLTCTVSGFSISTYNVHWLRQPPGKGLEWMGMMWSGGSPDYNSALKSRLSISRDTSKNQVFLKMNSLQSEDTTTYYCARWGGGFDYWGQGVMVTVSS
VL: DIVLTQSPTTLSVTPGETVSLSCRASHSIGTNLHWYQQKTNESPRLLIKFTSQSISGIPSRFSASGSGTDFTLNINNVEFDDVSSYFCQQTQSWPLTFGSGTKLEIKR
notes: rat VH/VL on effector-null human IgG1 and human kappa
B2: anti-E-selectin antibody 0180 chimera (antibody, human IgG1, kappa, V domains shown)
VH: EVQLQQSGAELGKPGTSVKLSCKVSGYKIRSSYMHWVNQRPGKGLEWIGRIDPANGNTIYGDKFKSKATLTSDTSSNTAYIQLSQLKSDDTAIYFCAIDIGTTFDYWGQGVMVTVSS
VL: DIQMTQSPSFLSASVGDRVTINCKASQHINRYLNWYQQKLGEAPKLLIYDANNLQTGIPSRFSGSGSGTDFTLTISSLQPEDVATYFCLQHNSWPNTFGAGTKLELKR
notes: as for B1
B3: anti-E-selectin antibody 0164 chimera (antibody, human IgG1, kappa, V domains shown)
VH: EVQLQQSGAEFGKPGTSVKLSCKVSGYNIRSSYMHWVNQRPGKGLEWIGRIDPANGNTIYAEKFKIKAILTADSSSNTAYMQLSQLKSDDTAIYFCAMDLYSTSEYWGQGVMVTVSS
VL: DIQMTQSPSFLSASVGDRVTINCKTSQNINRYLNWYQQKLGEAPKLLIYNANSLQTGIPSRFSASGSGTDFTLTINSLQPEDVATYFCLQDNSWPLTFGSGTKLEIKR
notes: as for B1
B4: anti-E-selectin antibody 0159 chimera (antibody, human IgG1, kappa, V domains shown)
VH: EVQLQQSGAELGKPGTSVKLSCKVSGYNIRSTYMHWVSQRPGKGLEWIGRIDPANGNTIYAEKFKRKATLTADTSSNTAYMQLSQLKSDDRAIYFCAMEVRVSFEYWGQGVMVTVSS
VL: DIQMTQSPSFLSASVGDRVTINCKASQNINKYLDWYQQKLGEGPKLLIYYTNNLHTGIPSRFSGSGSGTDFTLTISSLQPEDVATYFCLQHDSGYTFGAGTKLELKR
notes: as for B1
B5: anti-E-selectin antibody 0170 chimera (antibody, human IgG1, kappa, V domains shown)
VH: EVQLQQSGAELGKPGTSVKLSCKVSGYSIRSTYMHWVNQRPGKGLEWVGRIDPANGNTIYAERFKNKATLTADTSSNTAYMQLSQLKSDDTAIYFCAVEILGIFDYWGQGVMVTVSS
VL: DIQMTQSPSFLSASVGDRVTINCKASQNIDKYLDWYQQKLGEAPKLLMYNTNSLHTGIPSRFSGSGSGTDFTLTISSLQPEDVATYFCLQHNSGYTFGAGTKLELKR
notes: as for B1
B6: optimized anti-E-selectin antibody 1282 (antibody, human IgG1, kappa, V domains shown)
VH: EVQLVESGGGLVQPGGSLRLSCAASGYAIRSAYMHWVRQAPGKGLEWVARIDPANGNTIYVDSVEGRFTISADNAKNSAYLQMNSLRAEDTAVYYCAMDLYSTSEYWGQGTLVTVSS
VL: DIQMTQSPSSLSASVGDRVTITCKTSQNIERYLNWYQQKPGKAPKLLIYAASSLQSGVPSRFSGSGSGTDFTLTISSLQPEDFATYFCLQDNAWPLTFGQGTKVEIKR
notes: effector-null human IgG1, kappa
B7: optimized anti-E-selectin antibody 1284 (antibody, human IgG1, kappa, V domains shown)
VH: EVQLVESGGGLVQPGGSLRLSCAASGYAIRSAYMHWVRQAPGKGLEWVARIDPANGNTIYVESVEGRFTISADNAKNSAYLQMNSLRAEDTAVYYCAMDLYSTSEYWGQGTLVTVSS
VL: DIQMTQSPSSLSASVGDRVTITCKTSQNIERYLNWYQQKPGKAPKLLIYAASSLQSGVPSRFSGSGSGTDFTLTISSLQPEDFATYFCLQDNAWPLTFGQGTKVEIKR
notes: as for B6
B8: optimized anti-E-selectin antibody 1444 (antibody, human IgG1, kappa, V domains shown)
VH: EVQLVESGGGLVQPGGSLRLSCAASGYAIRSAYMHWVRQAPGKGLEWVARIDPANGNTIYVDSVTGRFTISADNAKNSAYLQMNSLRAEDTAVYYCAMDLYSTSEYWGQGTLVTVSS
VL: DIQMTQSPSSLSASVGDRVTITCKTSQNIERYLNWYQQKPGKAPKLLIYAASSLQSGVPSRFSGSGSGTDFTLTISSLQPEDFATYFCLQDNAWPLTFGQGTKVEIKR
notes: as for B6
B9: optimized anti-E-selectin antibody 1448 (antibody, human IgG1, kappa, V domains shown)
VH: EVQLVESGGGLVQPGGSLRLSCAASGYAIRSAYMHWVRQAPGKGLEWVARIDPANGNTIYVDSVKERFTISADNAKNSAYLQMNSLRAEDTAVYYCAMDLYSTSEYWGQGTLVTVSS
VL: DIQMTQSPSSLSASVGDRVTITCKTSQNIERYLNWYQQKPGKAPKLLIYAASSLQSGVPSRFSGSGSGTDFTLTISSLQPEDFATYFCLQDNAWPLTFGQGTKVEIKR
notes: as for B6

One may read the IC50 as the concentration needed to halve the response being measured.

One experiment concerns the target T1, human P-selectin expressed on CHO cells. The experiment is described as follows: flow cytometry, CHO cells. How it is done: Cells were maintained in growth medium at 37° C., 5% CO₂ and 95% air in a humidified incubator. Methotrexate or Zeocin were removed from the medium prior to culture for experiments. CHO-E selectin cells or P-selectin cells were detached from T-150 flasks using citric saline (135 mM KCl, 15 mM sodium citrate) and immediately re-calcified with the addition of CaCl₂) to the detached cells to a final concentration of 1 mM. Growth media was immediately added to the detached cells, then centrifuged at 300×g for 5 minutes at room temperature to pellet the cells. Cells were plated into 96-well V-bottom plates in cold CHO buffer consisting of phosphate buffered saline (PBS), pH 7.4 containing bovine serum albumin (BSA; Sigma-Aldrich) at final concentration of 1%, calcium chloride at final concentration of 1 mM, and sodium azide at a final concentration of 0.1%, for 5 minutes on wet ice. After incubation, the cells were centrifuged at 300×g for 2 minutes at 4° C. to remove the buffer.
After incubation, antibodies were removed and the cells were washed three times by centrifugation at 300×g for 1 minute at 4° C. and resuspended in cold CHO buffer. The washed cells were incubated for 30 minutes on wet ice with 100 μL of a 1:1000 dilution of APC-conjugated AffiniPure F(ab′)₂ Fragment Goat Anti-human IgG, Fcγ (Jackson Imnnunoresearch). The cells were washed three or four times prior to resuspension in CHO buffer for flow cytometric analysis. A Becton Dickinson LSRFortessa instrument using 640 nanometer laser line was used to acquire cell fluorescence data. Geometric mean fluorescence of cells was analyzed by FlowJo software package (FlowJo, LLC) and plotted against antibody concentration. The estimated EC₅₀ values were calculated using nonlinear regression analysis in the Prism suite (GraphPad, version 8) (Table 8).
For orientation: A flow cytometer gives signals particle by particle.
Consider B1, for which the binding result is on record as “no binding”.

As to B2, the binding result is “no binding”.

As to B3, the binding result is “no binding”.

With B4, the binding result is on record as “no binding”.

In the case of B5, the binding result is recorded as “no binding”.

Another experiment deals with T2, recombinant histidine-tagged human …. The experiment is described as follows: competition ELISA, His-tagged E-selectin on Ni-NTA plate vs HRP-conjugated sialyl Lewis A. How it is done:
Recombinant histidine-tagged E-selectin; cynomolgus monkey E-selectin (Sino Biologicals; 190169-C08H) and human E-selectin (Sino Biologicals; 13025-H08H) stock solutions were prepared to a final concentration of 3 μg/mL in phosphate buffered saline (PBS) without calcium and magnesium. One hundred μL per well of the diluted recombinant E-selectin protein was added into a Ni-NTA HisSorb 96 well plate (Qiagen, 35061) and plates were incubated on an orbital shaker at room temperature for 2 hours. Sialyl Lewis A polyacrylamide biotin, a synthetic E-selectin ligand (GlycoTech corporation 01-044), was conjugated to streptavidin HRP (horse radish peroxidase) (Ultra Streptavidin HRP, Thermo Scientific N504) and diluted in assay diluent containing 2 mM calcium chloride (BD OptEIA buffer; BD Biosciences, 555213).
Following the incubation, the plates were washed 5 times with 200 μL of wash buffer containing 2 mM of calcium chloride (50 mM TRIS [trisaminomethane]; 150 mM sodium chloride, 0.05% polysorbate 20, pH 7.4; 2 mM of calcium chloride). […] The final antibody concentration ranged from 200 nM to 0.09 nM and the final concentration of HRP conjugated Sialyl Lewis A was 5 μg/mL. Plates were washed as mentioned before, and 100 μL per well of 1-Step Ultra TMB substrate (Thermo Scientific, 34028) was added and incubated for 5 minutes at room temperature. Reactions were stopped with 100 μl of 2M sulfuric acid and absorbance read at 450 nm (Spectramax M5e). Data were analyzed and graphed using GraphPad Prism software (Version 8.0.2).
Background: ELISA stands for enzyme-linked immunosorbent assay.
As to B6, the IC50 was 3.39 nM.

Turning to B7, the IC50 was found to be 3.59 nM.

With B8, the concentration for half-maximal inhibition (IC50) amounted to 3.01 nM.

As for B9, the IC50 was found to be 2.96 nM.

As for B3, the IC50 came to 3.39 nM.
